The values that follow come from PMC8924211 (Nature Communications, 2022).

“And” between values parts separate entries of the source, which are not always exact repeats. Equal values may be shown once.

Assay [1] deals with GAL2R over GAL1R. The note with it: cited from earlier work. An excerpt: In contrast, L^4P contacts with equivalent ECL2 residues with weaker hydrophobicity (L169^ECL2, A170^ECL2, and L172^ECL2) in GAL2R (Fig. 3e, Supplementary Fig. 4b). The structural observation is coincident with our peptide truncation assay.
Assay [2] deals with SNAP-GAL1R (wild type) (human) (UniProt P47211).
Assay [3] addresses SNAP-GAL2R (wild type) (human) (UniProt O43603).
The target of assay [4] is SNAP-GAL1R (wild type) (human) (UniProt P47211). Kind of assay: AlphaScreen or HTRF; competition: HEK293 cells with SNAP-GAL1R or SNAP-GAL2R labelled with SNAP-Lumi4-Tb; 50 nM galanin-A2 with increasing concentrations of unlabeled ligand, 1 h at room temperature; Ki by the Cheng-Prusoff equation. On the technique in general: Bead proximity is the source of the signal in Alpha formats.

For assay [5], the target named is SNAP-GAL2R (wild type) (human) (UniProt O43603). The assay is described as above.
Assay [6] shares this target. This is another data set of the same source.
For assay [7] the target is unchanged. The source holds these as a separate data set.
The target of assay [8] is T1, N-terminal-SNAP-tagged GAL2R, wild type (human, UniProt O43603 1-387, Lumi4-Tb on the SNAP tag).
T1 construct: also called SNAP-GAL2R; GAL2R WT; source: HEK293, transfected, on cells; not shown: SNAP tag, N-terminal, kept
T1 sequence (looked up): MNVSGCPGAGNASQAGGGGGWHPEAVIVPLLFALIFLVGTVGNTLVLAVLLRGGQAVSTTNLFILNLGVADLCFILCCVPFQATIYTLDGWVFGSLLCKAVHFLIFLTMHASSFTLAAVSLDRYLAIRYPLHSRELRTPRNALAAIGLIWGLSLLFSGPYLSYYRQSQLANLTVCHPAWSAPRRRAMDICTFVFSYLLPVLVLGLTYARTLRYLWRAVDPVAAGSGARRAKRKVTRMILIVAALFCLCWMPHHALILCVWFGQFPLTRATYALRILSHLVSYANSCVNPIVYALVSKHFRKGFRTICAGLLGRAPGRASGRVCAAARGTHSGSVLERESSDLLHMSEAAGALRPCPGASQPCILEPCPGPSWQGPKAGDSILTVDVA
Briefly: AlphaScreen or HTRF; competition binding: HEK293 cells transfected with WT SNAP-tagged receptor and labelled with SNAP-Lumi4-Tb, incubated with 50 nM galanin-A2 and increasing concentrations of the unlabeled ligand, 1 h at room temperature; Ki from IC50 by the Cheng-Prusoff equation. Particulars: one partner purified.

Assay [9] concerns the target T2, N-terminal-SNAP-tagged GAL1R, wild type (human, UniProt P47211 1-349, Lumi4-Tb on the SNAP tag).
T2 construct: also called SNAP-GAL1R; GAL1R WT; source: HEK293, transfected, on cells; not shown: SNAP tag, N-terminal, kept
T2 sequence (looked up): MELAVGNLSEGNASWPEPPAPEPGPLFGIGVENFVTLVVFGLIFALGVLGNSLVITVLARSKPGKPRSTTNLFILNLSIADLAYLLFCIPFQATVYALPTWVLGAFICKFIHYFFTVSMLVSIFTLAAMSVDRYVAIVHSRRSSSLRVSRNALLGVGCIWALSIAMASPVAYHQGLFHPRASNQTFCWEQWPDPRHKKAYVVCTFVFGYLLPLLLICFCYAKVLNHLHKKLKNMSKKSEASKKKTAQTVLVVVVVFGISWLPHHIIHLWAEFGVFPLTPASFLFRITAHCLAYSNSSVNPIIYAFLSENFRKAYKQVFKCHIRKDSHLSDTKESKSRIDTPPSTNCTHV
The assay is described as above. The note with it: one partner purified.

The term Ki denotes a dissociation constant, usually derived from enzyme kinetics or from competition with a known ligand. The low end stands for higher affinity, the high end for lower affinity.

For the molecule “ARM1896: galanin segment 2-11 (WTLNSAGYLL; Galanin; UniProt P22466 34-43, looked up, fragment)”, the “selectivity for GAL1R” value in assay [1] is “low selectivity”.
For G1-truncated galanin (2-16) (peptide), the calcium assay EC50 (peptide on WT receptor; HEK293/Gα16 cells) was 3160 nM and 3440 nM and 3340 nM in [2]; 50.1 nM and 12.3 nM in [3]. Moreover, the Ki in [4] was greater than 10000 nM; in assay [5] it was 80.1 nM and 42.6 nM and 27 nM.
For “GALP (1–60): galanin-related peptide, galanin homologue; amino acids 9–21 identical to first 13 amino acids of galanin (APAHRGRGGWTLNSAGYLLGPVLHLPQMGDQDGKRETALEILDLWKAIDGLPYSHPPQPS; Galanin-like peptide; UniProt Q9UBC7 25-84, looked up)”, the “affinity for GAL2R versus GAL1R” value in [1] is listed as “higher affinity for GAL2R over GAL1R”.
For galanin (1-13) (peptide), the calcium assay EC50 (peptide on WT receptor; HEK293/Gα16 cells) in assay [2] was 324 nM and 328 nM and 268 nM; in assay [3], 12.8 nM and 14.6 nM and 69 nM. The inhibitory constant (Ki) was 343 nM and 409 nM and 314 nM in [4]; 41.4 nM and 11.1 nM and 17.8 nM in [5].
Turning to galanin (1-16) (peptide), in [3], the calcium assay EC50 (peptide on WT receptor; HEK293/Gα16 cells) was 23.5 nM and 12.5 nM and 12.6 nM. In assay [5], the Ki was 20.1 nM and 22.6 nM and 15.6 nM.
In the case of galanin (1-16, Y9A) (peptide), the calcium assay EC50 (peptide on WT receptor; HEK293/Gα16 cells) in [2] and in assay [3] was greater than 10000 nM each time. Also, the Ki in assay [4] was 2880 nM and 2850 nM and 1690 nM; in assay [5], greater than 100000 nM.
“galanin (full length, unlabeled) (peptide)”: in [6], the calcium assay EC50 (galanin; HEK293/Gα16 cells) is 35.3 nM and 27.2 nM and 64.9 nM. For the same molecule, the calcium assay EC50 (peptide on WT receptor; HEK293/Gα16 cells) in assay [3] was 8.27 nM and 11.6 nM.
Turning to “spexin (mature, 14 amino acids) (peptide)”, the calcium assay EC50 (spexin) in [7] is 327 nM and 178 nM and 81.4 nM.
As for GWTLNSAGALLGPHAV (numbers count on: the mature protein) [Gal (1-16, Y9A)], the results for the Ki in [8] and in assay [9] were greater than 100000 nM and 2480 nM, respectively.
For the molecule GWTLNSAGYLLGP (numbers count on: the mature protein) [Gal (1-13)], the Ki came out at 23.5 nM in assay [8] and 356 nM in assay [9].
As to WTLNSAGYLLGPHAV (numbers count on: the mature protein) [Gal (2-16)], the Ki in [8] was 49.9 nM; in assay [9], greater than 10000 nM.
